According to the supplement of paper PMC10567573:

B1: SMG5 (parent)
chain: QEKLQVLMAEGLLPAVKVFLDWLR

Variants of: B1
Assay: protein stability index of a GFP-peptide fusion (GPS, HEK-293T) (PSI 1-6); higher = more stable
Conditions: c terminus: a fixed tail appended
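Note: lentivirally expressed fusions sorted by FACS into six bins by GFP to DsRed ratio, PSI derived from sequencing read proportions per bin multiplied by bin number.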

Row | Variant | protein stability index
1 | QEKLQVCMAEGLLPAVKVFLDWLR [L7C] | 1.54
2 | QEKLQVDMAEGLLPAVKVFLDWLR [L7D] | 1.94
3 | QEKLQVEMAEGLLPAVKVFLDWLR [L7E] | 2
4 | QEKLQVFMAEGLLPAVKVFLDWLR [L7F] | 1.8
5 | QEKLQVKMAEGLLPAVKVFLDWLR [L7K] | 2.49
6 | QEKLQVMMAEGLLPAVKVFLDWLR [L7M] | 1.64
7 | QEKLQVNMAEGLLPAVKVFLDWLR [L7N] | 2.47
8 | QEKLQVPMAEGLLPAVKVFLDWLR [L7P] | 2.26
9 | QEKLQVRMAEGLLPAVKVFLDWLR [L7R] | 4.07
10 | QEKLQVSMAEGLLPAVKVFLDWLR [L7S] | 1.67
11 | QEKLQVVMAEGLLPAVKVFLDWLR [L7V] | 2.07
12 | QEKLQVWMAEGLLPAVKVFLDWLR [L7W] | 3.24
13 | QEKLQVYMAEGLLPAVKVFLDWLR [L7Y] | 1.86
14 | QEKLQVLAAEGLLPAVKVFLDWLR [M8A] | 2.54
15 | QEKLQVLCAEGLLPAVKVFLDWLR [M8C] | 2.26
16 | QEKLQVLDAEGLLPAVKVFLDWLR [M8D] | 1.8
17 | QEKLQVLEAEGLLPAVKVFLDWLR [M8E] | 2.44
18 | QEKLQVLFAEGLLPAVKVFLDWLR [M8F] | 1.36
19 | QEKLQVLGAEGLLPAVKVFLDWLR [M8G] | 2.85
20 | QEKLQVLHAEGLLPAVKVFLDWLR [M8H] | 4.3
21 | QEKLQVLIAEGLLPAVKVFLDWLR [M8I] | 1.9
22 | QEKLQVLKAEGLLPAVKVFLDWLR [M8K] | 2.8
23 | QEKLQVLLAEGLLPAVKVFLDWLR [M8L] | 2.48
24 | QEKLQVLNAEGLLPAVKVFLDWLR [M8N] | 2.57

Row | Variant | protein stability index
25 | QEKLQVLQAEGLLPAVKVFLDWLR [M8Q] | 2.85
26 | QEKLQVLRAEGLLPAVKVFLDWLR [M8R] | 3.01
27 | QEKLQVLSAEGLLPAVKVFLDWLR [M8S] | 1.31
28 | QEKLQVLTAEGLLPAVKVFLDWLR [M8T] | 3.02
29 | QEKLQVLVAEGLLPAVKVFLDWLR [M8V] | 3.7
30 | QEKLQVLWAEGLLPAVKVFLDWLR [M8W] | 2.3
31 | QEKLQVLYAEGLLPAVKVFLDWLR [M8Y] | 3.06
32 | QEKLQVLMCEGLLPAVKVFLDWLR [A9C] | 2.63
33 | QEKLQVLMDEGLLPAVKVFLDWLR [A9D] | 1.76
34 | QEKLQVLMEEGLLPAVKVFLDWLR [A9E] | 2.95
35 | QEKLQVLMFEGLLPAVKVFLDWLR [A9F] | 1.78
36 | QEKLQVLMHEGLLPAVKVFLDWLR [A9H] | 2.41
37 | QEKLQVLMIEGLLPAVKVFLDWLR [A9I] | 1.82
38 | QEKLQVLMKEGLLPAVKVFLDWLR [A9K] | 2.21
39 | QEKLQVLMLEGLLPAVKVFLDWLR [A9L] | 3.66
40 | QEKLQVLMMEGLLPAVKVFLDWLR [A9M] | 1.81
41 | QEKLQVLMNEGLLPAVKVFLDWLR [A9N] | 3.04
42 | QEKLQVLMPEGLLPAVKVFLDWLR [A9P] | 2.41
43 | QEKLQVLMQEGLLPAVKVFLDWLR [A9Q] | 2.82
44 | QEKLQVLMREGLLPAVKVFLDWLR [A9R] | 4.4
45 | QEKLQVLMSEGLLPAVKVFLDWLR [A9S] | 2.19
46 | QEKLQVLMTEGLLPAVKVFLDWLR [A9T] | 1.42
47 | QEKLQVLMVEGLLPAVKVFLDWLR [A9V] | 1.58
48 | QEKLQVLMWEGLLPAVKVFLDWLR [A9W] | 1.78

Row | Variant | protein stability index
49 | QEKLQVLMYEGLLPAVKVFLDWLR [A9Y] | 1.98
50 | QEKLQVLMAAGLLPAVKVFLDWLR [E10A] | 2.7
51 | QEKLQVLMACGLLPAVKVFLDWLR [E10C] | 2.58
52 | QEKLQVLMADGLLPAVKVFLDWLR [E10D] | 1.44
53 | QEKLQVLMAFGLLPAVKVFLDWLR [E10F] | 1.86
54 | QEKLQVLMAHGLLPAVKVFLDWLR [E10H] | 3.21
55 | QEKLQVLMAIGLLPAVKVFLDWLR [E10I] | 1.4
56 | QEKLQVLMALGLLPAVKVFLDWLR [E10L] | 1.93
57 | QEKLQVLMAMGLLPAVKVFLDWLR [E10M] | 1.85
58 | QEKLQVLMAPGLLPAVKVFLDWLR [E10P] | 2.12
59 | QEKLQVLMAQGLLPAVKVFLDWLR [E10Q] | 2.35
60 | QEKLQVLMARGLLPAVKVFLDWLR [E10R] | 1.95
61 | QEKLQVLMASGLLPAVKVFLDWLR [E10S] | 2.61
62 | QEKLQVLMATGLLPAVKVFLDWLR [E10T] | 2.89
63 | QEKLQVLMAVGLLPAVKVFLDWLR [E10V] | 1.76
64 | QEKLQVLMAWGLLPAVKVFLDWLR [E10W] | 1.65
65 | QEKLQVLMAYGLLPAVKVFLDWLR [E10Y] | 1.56
66 | QEKLQVLMAEALLPAVKVFLDWLR [G11A] | 2.28
67 | QEKLQVLMAECLLPAVKVFLDWLR [G11C] | 1.99
68 | QEKLQVLMAEDLLPAVKVFLDWLR [G11D] | 1.64
69 | QEKLQVLMAEELLPAVKVFLDWLR [G11E] | 1.6
70 | QEKLQVLMAEFLLPAVKVFLDWLR [G11F] | 1.84
71 | QEKLQVLMAEHLLPAVKVFLDWLR [G11H] | 1.99
72 | QEKLQVLMAEILLPAVKVFLDWLR [G11I] | 1.81

Row | Variant | protein stability index
73 | QEKLQVLMAEKLLPAVKVFLDWLR [G11K] | 1.6
74 | QEKLQVLMAELLLPAVKVFLDWLR [G11L] | 1.6
75 | QEKLQVLMAEMLLPAVKVFLDWLR [G11M] | 2.38
76 | QEKLQVLMAENLLPAVKVFLDWLR [G11N] | 1.52
77 | QEKLQVLMAEPLLPAVKVFLDWLR [G11P] | 2.2
78 | QEKLQVLMAEQLLPAVKVFLDWLR [G11Q] | 1.69
79 | QEKLQVLMAERLLPAVKVFLDWLR [G11R] | 2.04
80 | QEKLQVLMAESLLPAVKVFLDWLR [G11S] | 1.99
81 | QEKLQVLMAETLLPAVKVFLDWLR [G11T] | 2.44
82 | QEKLQVLMAEVLLPAVKVFLDWLR [G11V] | 2.56
83 | QEKLQVLMAEWLLPAVKVFLDWLR [G11W] | 2.23
84 | QEKLQVLMAEYLLPAVKVFLDWLR [G11Y] | 2.29
85 | QEKLQVLMAEGALPAVKVFLDWLR [L12A] | 1.61
86 | QEKLQVLMAEGDLPAVKVFLDWLR [L12D] | 2.16
87 | QEKLQVLMAEGELPAVKVFLDWLR [L12E] | 2.32
88 | QEKLQVLMAEGFLPAVKVFLDWLR [L12F] | 1.91
89 | QEKLQVLMAEGGLPAVKVFLDWLR [L12G] | 1.79
90 | QEKLQVLMAEGHLPAVKVFLDWLR [L12H] | 1.25
91 | QEKLQVLMAEGILPAVKVFLDWLR [L12I] | 2.14
92 | QEKLQVLMAEGKLPAVKVFLDWLR [L12K] | 2.34
93 | QEKLQVLMAEGMLPAVKVFLDWLR [L12M] | 1.22
94 | QEKLQVLMAEGNLPAVKVFLDWLR [L12N] | 1.82
